Experimental data taken from US20200277382A1 (TUFTS MEDICAL CENTER, published 2020).

Target: T1, integrin α5 (obligate heterodimer α5β1) (human, UniProt P08648 42-1049; P05556 21-798)
T1 construct: whole, on cells; on the cells α5 stands as α5β1; also called alpha 5; ITGA5
Assay: flow cytometry on a panel of cell lines with variable integrin α5 and alpha-V expression
Procedure: Flow Cytometry: Cells with variable membrane integrin α5 and alpha-V expression were incubated with monoclonal α5 or alpha-V antibodies (Millipore MAB1956Z and MABT207), the bispecific antibody construct ITGA5B1xAV, or isotype control, for 1 hour at room temperature followed by 1 hour of incubation with a secondary-conjugated antibody, before being analyzed by flow cytometry.
Statistics: The mean fluorescent intensities (MFI) for the α5, alpha-V, and bispecific ITGA5B1xAV stained cell populations for each cell line were calculated from the flow cytometry data. Then a correlation coefficient between the sum of α5 and alpha-V MFIs and the bispecific ITGA5B1xAV was calculated.
The sum of integrin α5 and integrin alpha-V binding (MFI) was highly correlated with bispecific binding (correlation.9187; FIG. 3B).

B1: ITGA5B1xAV bispecific, tetravalent antibody construct (bispecific antibody, human IgG2, kappa)
heavy: QVQLQQSGGELAKPGASVKVSCKASGYTFSSFWMHWVRQAPGQGLEWIGYINPRSGYTEYNEIFRDKATMTTDTSTSTAYMELSSLRSEDTAVYYCASFLGRGAMDYWGQGTTVTVSSASTKGPSVFPLAPCSRSTSESTAALGCLVKDYFPEPVTVSWNSGALTSGVHTFPAVLQSSGLYSLSSVVTVPSSNFGTQTYTCNVDHKPSNTKVDKTVERKCCVECPPCPAPPVAGPSVFLFPPKPKDTLMISRTPEVTCVVVDVSHEDPEVQFNWYVDGVEVHNAKTKPREEQFNSTFRVVSVLTVVHQDWLNGKEYKCKVSNKGLPAPIEKTISKTKGQPREPQVYTLPPSREEMTKNQVSLTCLVKGFYPSDIAVEWESNGQPENNYKTTPPMLDSDGSFFLYSKLTVDKSRWQQGNVFSCSVMHEALHNHYTQKSLSLSPGKGGGGSGGGGSQVQLKESGPGLVAPSQSLSITCTISGFSLTDYGVHWVRQPPGKGLEWLVVIWSDGSSTYNSALKSRMTIRKDNSKSQVFLIMNSLQTDDSAMYYCARHGTYYGMTTTGDALDYWGQGTSVTVSSGGGGSGGGGSGGGGSQIVLTQSPAIMSASLGERVTMTCTASSSVSSNYLHWYQQKPGSAPNLWIYSTSNLASGVPARFSGSGSGTSYSLTISSMEAEDAATYYCHQYLRSPPTFGGGTKLEIK
light: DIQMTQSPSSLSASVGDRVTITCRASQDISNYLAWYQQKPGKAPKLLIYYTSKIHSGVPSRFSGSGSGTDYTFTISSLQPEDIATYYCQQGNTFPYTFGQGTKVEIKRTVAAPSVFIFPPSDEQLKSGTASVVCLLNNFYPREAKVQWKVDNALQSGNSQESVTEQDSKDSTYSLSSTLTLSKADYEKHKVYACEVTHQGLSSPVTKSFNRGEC
notes: also called ITGa5β1xaV; bispecific ITGA5V
- binding result: binds
